US20050137128 (published 2005)
Square brackets hold non-standard residues; d marks the D form. * marks the point of attachment. NHOH = ON*

Molecular target: Aβ1-40 fibril (Homo sapiens)
Assay: other, fibril binding 3-point assay

Q: How did the Kd turn out when Me-[dL][dV][dF][dF][dL]-{NHOH} [PPI-1800] was run?
A: ~4 nM
